Entries after “also recorded” stand apart in the source; their conditions may differ.
Legend:
PAR-2 [1] = test: Affinity for PAR-2 in phage display selection and affinity maturation; format: binding; conditions: initial selection, Fab
Excerpt: Antibody phage display techniques were employed to pan for antibodies (Fab fragments) capable of immunospecifically binding to residues spanning the protease cleavage site at the N-terminal of PAR-2. […] The sequences of the heavy (IgG4) and light (lambda) chain variable regions of the antibody Ab3777 are presented below (CDR residues are underlined): […]

[2] = system: labeled peptide representing the N-terminus of PAR-2; test: FRET-based PAR-2 peptide cleavage assay (trypsin); format: biochemical
Protocol: To assess the ability of antibody Ab3777 to block trypsin mediated cleavage of the PAR-2 N-terminus, antibodies were tested in a FRET assay that measures an increase in fluorescence upon cleavage of a labeled peptide representing the N-terminus of PAR-2. […] To assess the ability of antibodies to block trypsin mediated cleavage of the PAR-2 N-terminus on cells, HEK transfectants over-expressing FLAG-tagged PAR-2 were treated with trypsin in the presence or absence of Ab3777 dHLX bivalent Fabs. Activation of PAR-2 results in cleavage/internalization of the receptor resulting in a loss of the FLAG epitope as detected by an antibody in a flow cytometry assay (FIG. 3).
Affinity matured and cross-cloned antibodies in the IgG4_Pro format were evaluated for cell binding, inhibition of trypsin induced calcium responses in a FLIPR assay, inhibition of PAR-2 peptide cleavage in a FRET assay and inhibition of PAR-2 cleavage in a cell based assay system. All candidates show excellent apparent affinity (EC50) for PAR-2 transfected cells and maximal efficacy and potency in all short term cellular assays (Table 4).

FLAG-tagged PAR-2 = target: T1, FLAG-tagged PAR-2 (Homo sapiens, UniProt P55085); test: FLAG-PAR-2 cell-based cleavage assay (flow cytometry); conditions: dHLX bivalent Fab; trypsin 30 nM, 5 minutes
T1 construct: expressed in transfected cells; host or cells: HEK
T1 sequence (P55085 26-397): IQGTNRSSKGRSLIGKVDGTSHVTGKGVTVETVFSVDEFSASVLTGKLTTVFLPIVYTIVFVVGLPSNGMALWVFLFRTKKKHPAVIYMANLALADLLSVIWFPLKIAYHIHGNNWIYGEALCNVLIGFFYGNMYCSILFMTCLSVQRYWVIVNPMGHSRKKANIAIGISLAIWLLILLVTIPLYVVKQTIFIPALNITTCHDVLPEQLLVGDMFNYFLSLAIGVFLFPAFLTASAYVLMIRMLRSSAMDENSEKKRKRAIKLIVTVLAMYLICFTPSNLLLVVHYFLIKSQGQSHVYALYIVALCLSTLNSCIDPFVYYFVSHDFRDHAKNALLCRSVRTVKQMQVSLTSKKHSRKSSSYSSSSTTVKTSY
Protocol: To assess the ability of antibody Ab3777 to block trypsin mediated cleavage of the PAR-2 N-terminus, antibodies were tested in a FRET assay that measures an increase in fluorescence upon cleavage of a labeled peptide representing the N-terminus of PAR-2. […] To assess the ability of antibodies to block trypsin mediated cleavage of the PAR-2 N-terminus on cells, HEK transfectants over-expressing FLAG-tagged PAR-2 were treated with trypsin in the presence or absence of Ab3777 dHLX bivalent Fabs. […]
Detection of the FLAG-tag on the cell surface correlates with inhibitory activity.

PAR-2 [3] = target: T2, PAR-2 (Homo sapiens, UniProt P55085); test: Trypsin induced calcium response (FLIPR) in A549 cells; format: cell-based; set-up: expressing endogenous PAR-2; endogenous in cells; host or cells: A549; conditions: A549 cells
T2 sequence (P55085 26-397): T1 sequence (P55085 26-397)
Protocol: Using A549 cells, PAR-2 activation was measured by detecting the calcium response following trypsin stimulation. Fabs were tested in this assay for their ability to inhibit this response. […] Antibody concentrations are expressed as μg/ml (FIG. 6).
Thrombin activates PAR-1, whereas PAR-2 is activated by trypsin in A549 cells.

B1: Ab3777: parental anti-PAR-2 antibody from phage display; light chain SEQ ID NO:6, heavy chain SEQ ID NO:7 (antibody, V domains shown)
VH: QVQLVESGGGLVQPGGSLRLSCAASGFTFSSYAMNWVRQAPGKGLEWVSTISYSSSATSYADSVKGRFTISRDNSKNTLYLQMNSLRAEDTAVYYCARIQNDPMDVWGQGTLVTVSS
VL: DIELTQPPSVSVAPGQTARISCSGDNLGKKYVQWYQQKPGQAPVLVIYDDSNRPSGIPERFSGSNSGNTATLTISGTQAEDEADYYCSSWDVGSDGWVFGGGTKLTVLGQ
modifications: Antibody identified via phage display
Kd (PAR-2 [1]): 65 nM | inhibition of trypsin cleavage of PAR-2 peptide (in words) [2]: partial inhibition; also recorded: partially block this cleavage in a transient manner | inhibition in cellular cleavage assay (in words) (FLAG-tagged PAR-2): partial inhibition | activity in trypsin induced calcium response assay (in words) (PAR-2 [3]; IgG1 format): active but weaker | inhibition in trypsin induced calcium response assay (in words) (PAR-2 [3]; bivalent Fab format): partial dose-dependent inhibition | activity in trypsin induced calcium response assay (in words) (PAR-2 [3]; monovalent format): not active
